T1: human GITR (human, UniProt Q9Y5U5 26-241)
T1 sequence: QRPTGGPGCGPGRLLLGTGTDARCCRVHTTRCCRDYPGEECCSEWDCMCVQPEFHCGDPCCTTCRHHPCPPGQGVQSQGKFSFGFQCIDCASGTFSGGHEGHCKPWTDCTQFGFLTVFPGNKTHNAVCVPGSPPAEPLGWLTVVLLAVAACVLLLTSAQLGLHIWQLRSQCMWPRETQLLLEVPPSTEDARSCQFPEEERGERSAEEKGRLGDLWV

T2: human GITR-Fc (Enzo Life Sciences, ALX-522-061-C050) (human, UniProt Q9Y5U5 26-162)
T2 construct: Bought protein; not shown: Fc part of the bought fusion protein; not described
T2 sequence: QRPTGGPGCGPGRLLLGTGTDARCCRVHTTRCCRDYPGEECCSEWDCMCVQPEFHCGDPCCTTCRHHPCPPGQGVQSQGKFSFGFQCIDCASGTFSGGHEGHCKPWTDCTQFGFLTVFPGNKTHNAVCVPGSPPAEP


Experiments:
human GITR [1] = molecular target: T1, human GITR; experiment: cell-based or functional assay
human GITR [2] = molecular target: T1, human GITR; experiment: cell-based or functional assay; remark: listed apart in the source
[3] = molecular target: T2, human GITR-Fc (Enzo Life Sciences, …); experiment: ProteOn XPR36; human GITR-Fc amine-coupled on GLC chip, Nanobody injected at 6 concentrations
Procedure: Affinity was determined on the Proteon XPR36. Briefly, after human GITR-Fc (Enzo Life Sciences, ALX-522-061-C050) was immobilized on a GLC chip via amine coupling, a range of 6 concentrations of different monovalent Nanobodies (representing each family) were injected. The Ko values were determined by using the calculated association rate and dissociation rate constants (Table 1) (ProteOn Manager 3.1.0, Version 3.1.0.6 (2011)).

Row | Binder | EC50, HEK293_NF-κB luc reporter (human GITR [1]) | Efficacy (%), human GITR ligand = 100%, HEK293_NF-κB luc reporter (human GITR [1]) | EC50, IFN-γ read-out, human T cell activation assay (human GITR [2]) | Maximal efficacy (%), human GITR ligand = 100%, IFN-γ read-out (human GITR [2]) | Kd [3] | koff [3] | kon [3]
1 | A023100107 (VHH) DVQLVESGGGVVQPGGSLRLSCAASETIFSIDSMAWYRQAPGKQRELVAAITGGGSPNYADSVKGRFTISSDVSKRTVYLQMNSLRPEDTALYYCNAEGQAGWGTALLDYWGQGTLVTVSSGGGGSGGGSEVQLVESGGGVVQPGGSLRLSCAASETIFSIDSMAWYRQAPGKQRELVAAITGGGSPNYADSVKGRFTISSDVSKRTVYLQMNSLRPEDTALYYCNAEGQAGWGTALLDYWGQGTLVTVSSGGGGSGGGSEVQLVESGGGVVQPGGSLRLSCAASETIFSIDSMAWYRQAPGKQRELVAAITGGGSPNYADSVKGRFTISSDVSKRTVYLQMNSLRPEDTALYYCNAEGQAGWGTALLDYWGQGTLVTVSSGGGGSGGGSEVQLVESGGGVVQPGGSLRLSCAASETIFSIDSMAWYRQAPGKQRELVAAITGGGSPNYADSVKGRFTISSDVSKRTVYLQMNSLRPEDTALYYCNAEGQAGWGTALLDYWGQGTLVTVSSGGGGSGGGGSGGGGSGGGGSGGGGSGGGGSGGGGSEVQLVESGGGVVQPGGSLRLSCAASGFTFRSFGMSWVRQAPGKGPEWVSSISGSGSDTLYADSVKGRFTISRDNSKNTLYLQMNSLRPEDTALYYCTIGGSLSRSSQGTLVTVSSA | 0.0147 nM | 147% | 0.0646 nM | 99.8% |  |  | 
2 | A023100101 (VHH) DVQLVESGGGVVQPGGSLRLSCAASETIFSIDSMAWYRQAPGKQRELVAAITGGGSPNYADSVKGRFTISSDVSKRTVYLQMNSLRPEDTALYYCNAEGQAGWGTALLDYWGQGTLVTVSSGGGGSGGGSEVQLVESGGGVVQPGGSLRLSCAASETIFSIDSMAWYRQAPGKQRELVAAITGGGSPNYADSVKGRFTISSDVSKRTVYLQMNSLRPEDTALYYCNAEGQAGWGTALLDYWGQGTLVTVSSGGGGSGGGSEVQLVESGGGVVQPGGSLRLSCAASETIFSIDSMAWYRQAPGKQRELVAAITGGGSPNYADSVKGRFTISSDVSKRTVYLQMNSLRPEDTALYYCNAEGQAGWGTALLDYWGQGTLVTVSSGGGGSGGGGSGGGGSGGGGSGGGGSGGGGSGGGGSEVQLVESGGGVVQPGGSLRLSCAASGFTFRSFGMSWVRQAPGKGPEWVSSISGSGSDTLYADSVKGRFTISRDNSKNTLYLQMNSLRPEDTALYYCTIGGSLSRSSQGTLVTVSSA | 0.02 nM | 136% | 0.0642 nM | 92.6% |  |  | 
3 | A023100118 (VHH) DVQLVESGGGVVQPGGSLRLSCAASETIFSIDSMAWYRQAPGKQRELVAAITGGGSPNYADSVKGRFTISSDVSKRTVYLQMNSLRPEDTALYYCNAEGQAGWGTALLDYWGQGTLVTVSSGGGGSGGGSEVQLVESGGGVVQPGGSLRLSCAASETIFSIDSMAWYRQAPGKQRELVAAITGGGSPNYADSVKGRFTISSDVSKRTVYLQMNSLRPEDTALYYCNAEGQAGWGTALLDYWGQGTLVTVSSGGGGSGGGSEVQLVESGGGVVQPGGSLRLSCAASETIFSIDSMAWYRQAPGKQRELVAAITGGGSPNYADSVKGRFTISSDVSKRTVYLQMNSLRPEDTALYYCNAEGQAGWGTALLDYWGQGTLVTVSSGGGGSGGGSEVQLVESGGGVVQPGGSLRLSCAASETIFSIDSMAWYRQAPGKQRELVAAITGGGSPNYADSVKGRFTISSDVSKRTVYLQMNSLRPEDTALYYCNAEGQAGWGTALLDYWGQGTLVTVSSGGGGSGGGSEVQLVESGGGVVQPGGSLRLSCAASETIFSIDSMAWYRQAPGKQRELVAAITGGGSPNYADSVKGRFTISSDVSKRTVYLQMNSLRPEDTALYYCNAEGQAGWGTALLDYWGQGTLVTVSSGGGGSGGGGSGGGGSGGGGSGGGGSGGGGSGGGGSEVQLVESGGGVVQPGGSLRLSCAASGFTFRSFGMSWVRQAPGKGPEWVSSISGSGSDTLYADSVKGRFTISRDNSKNTLYLQMNSLRPEDTALYYCTIGGSLSRSSQGTLVTVSSA | 0.0128 nM | 140% | 0.0426 nM | 95.6% |  |  | 
4 | A023100127 (VHH) DVQLVESGGGVVQPGGSLRLSCAASGSIFSIDSMGWYRQAPGKQRELVAAITSSTNYADSVKGRFTISRDNSKNTVYLQMNSLRPEDTALYYCNLEGQAGWGTALINYWGQGTLVTVSSGGGGSGGGSEVQLVESGGGVVQPGGSLRLSCAASGSIFSIDSMGWYRQAPGKQRELVAAITSSTNYADSVKGRFTISRDNSKNTVYLQMNSLRPEDTALYYCNLEGQAGWGTALINYWGQGTLVTVSSGGGGSGGGSEVQLVESGGGVVQPGGSLRLSCAASGSIFSIDSMGWYRQAPGKQRELVAAITSSTNYADSVKGRFTISRDNSKNTVYLQMNSLRPEDTALYYCNLEGQAGWGTALINYWGQGTLVTVSSGGGGSGGGSEVQLVESGGGVVQPGGSLRLSCAASGSIFSIDSMGWYRQAPGKQRELVAAITSSTNYADSVKGRFTISRDNSKNTVYLQMNSLRPEDTALYYCNLEGQAGWGTALINYWGQGTLVTVSSGGGGSGGGGSGGGGSGGGGSGGGGSGGGGSGGGGSEVQLVESGGGVVQPGGSLRLSCAASGFTFRSFGMSWVRQAPGKGPEWVSSISGSGSDTLYADSVKGRFTISRDNSKNTLYLQMNSLRPEDTALYYCTIGGSLSRSSQGTLVTVSSA | 0.0157 nM | 150% | 0.0587 nM | 86.8% |  |  | 
5 | A023100105 (VHH) DVQLVESGGGVVQPGGSLRLSCAASGSIFSIDSMGWYRQAPGKQRELVAAITSSTNYADSVKGRFTISRDNSKNTVYLQMNSLRPEDTALYYCNLEGQAGWGTALINYWGQGTLVTVSSGGGGSGGGSEVQLVESGGGVVQPGGSLRLSCAASGSIFSIDSMGWYRQAPGKQRELVAAITSSTNYADSVKGRFTISRDNSKNTVYLQMNSLRPEDTALYYCNLEGQAGWGTALINYWGQGTLVTVSSGGGGSGGGSEVQLVESGGGVVQPGGSLRLSCAASGSIFSIDSMGWYRQAPGKQRELVAAITSSTNYADSVKGRFTISRDNSKNTVYLQMNSLRPEDTALYYCNLEGQAGWGTALINYWGQGTLVTVSSGGGGSGGGGSGGGGSGGGGSGGGGSGGGGSGGGGSEVQLVESGGGVVQPGGSLRLSCAASGFTFRSFGMSWVRQAPGKGPEWVSSISGSGSDTLYADSVKGRFTISRDNSKNTLYLQMNSLRPEDTALYYCTIGGSLSRSSQGTLVTVSSA |  |  | 0.06 nM | 97% |  |  | 

Now from value to binder:

Row | EC50, HEK293_NF-κB luc reporter (human GITR [1]) | Efficacy (%), human GITR ligand = 100%, HEK293_NF-κB luc reporter (human GITR [1]) | EC50, IFN-γ read-out, human T cell activation assay (human GITR [2]) | Maximal efficacy (%), human GITR ligand = 100%, IFN-γ read-out (human GITR [2]) | Kd [3] | koff [3] | kon [3] | Binder
6 |  |  |  |  | 78 nM | 0.015 s⁻¹ | 190000 M⁻¹ s⁻¹ | A0231051E01 (VHH, Monovalent Nanobody expressed in E. coli with a triple Flag, HIS6 tag; also called A0231PMP051E01; PA0231PMP051E01.1; not shown: C-terminal triple FLAG and HIS6 tag) VHH: EVQLVESGGGLVQAGGSLRLSCAASGSIFSFIVMGWYRQAPGEQRALVATVTSGGDTFYVDSVKDRFTISRDNAKNTVYLQMNSLKPEDTAVYFCYFTKVSPYKETTWGQGTLVTVSS
7 | 0.0118 nM | 146% | 0.0515 nM | 108% |  |  |  | A023100129 (VHH) DVQLVESGGGVVQPGGSLRLSCAASGSIFSIDSMGWYRQAPGKQRELVAAITSSTNYADSVKGRFTISRDNSKNTVYLQMNSLRPEDTALYYCNLEGQAGWGTALINYWGQGTLVTVSSGGGGSGGGSEVQLVESGGGVVQPGGSLRLSCAASGSIFSIDSMGWYRQAPGKQRELVAAITSSTNYADSVKGRFTISRDNSKNTVYLQMNSLRPEDTALYYCNLEGQAGWGTALINYWGQGTLVTVSSGGGGSGGGSEVQLVESGGGVVQPGGSLRLSCAASGSIFSIDSMGWYRQAPGKQRELVAAITSSTNYADSVKGRFTISRDNSKNTVYLQMNSLRPEDTALYYCNLEGQAGWGTALINYWGQGTLVTVSSGGGGSGGGSEVQLVESGGGVVQPGGSLRLSCAASGSIFSIDSMGWYRQAPGKQRELVAAITSSTNYADSVKGRFTISRDNSKNTVYLQMNSLRPEDTALYYCNLEGQAGWGTALINYWGQGTLVTVSSGGGGSGGGSEVQLVESGGGVVQPGGSLRLSCAASGSIFSIDSMGWYRQAPGKQRELVAAITSSTNYADSVKGRFTISRDNSKNTVYLQMNSLRPEDTALYYCNLEGQAGWGTALINYWGQGTLVTVSSGGGGSGGGGSGGGGSGGGGSGGGGSGGGGSGGGGSEVQLVESGGGVVQPGGSLRLSCAASGFTFRSFGMSWVRQAPGKGPEWVSSISGSGSDTLYADSVKGRFTISRDNSKNTLYLQMNSLRPEDTALYYCTIGGSLSRSSQGTLVTVSSA
8 |  |  |  |  | 120 nM | 0.09 s⁻¹ | 750000 M⁻¹ s⁻¹ | A0231052E08 (VHH, Monovalent Nanobody expressed in E. coli with a triple Flag, HIS6 tag; also called A0231PMP052E08; PA0231PMP052E08.1; not shown: C-terminal triple FLAG and HIS6 tag) VHH: EVQLVESGGGLVQAGGSLRLSCTGSRSIFSTYAMAWHRQAPGKQRELVGFIYWGGTTTYSDSVKGRFTISRDNAKNTMYLQMNSLKPEDAGVYYCNIYGSYALPWGQGTLVTVSS
